B1: MN-15: murine Class I anti-CEA MAb, IgG1 kappa, binds A1B1 domain of CEACAM5 and CEACAM6 (antibody, V domains shown)
VL: DIQLTQSPAIMSASPGEKVTMTCSASSRVSYIHWYQQKSGTSPKRWIYGTSTLASGVPARFSGSGSGTSYSLTISSMEAEDAATYYCQQWSYNPPTFGAGTKLELKR
VH: EVRLVESGGGLVQGPGSLRLSCAASGFALTDYYMSWVRQSPGKTLEWLGFIANKANGHTTDYSPSVKGRFTISRDNSQTILYLQMNTLRTEDSATYYCARDMGIRWNFDVWGQGTTVTVSS
B2: MN-15 Fab′: monovalent Fab′ fragment of murine MN-15 (antibody, V domains shown)
VL: DIQLTQSPAIMSASPGEKVTMTCSASSRVSYIHWYQQKSGTSPKRWIYGTSTLASGVPARFSGSGSGTSYSLTISSMEAEDAATYYCQQWSYNPPTFGAGTKLELKR
VH: EVRLVESGGGLVQGPGSLRLSCAASGFALTDYYMSWVRQSPGKTLEWLGFIANKANGHTTDYSPSVKGRFTISRDNSQTILYLQMNTLRTEDSATYYCARDMGIRWNFDVWGQGTTVTVSS

Tests used:
LS174T cells [1] = assay: Spontaneous migration (wound-healing) assay, LS174T; assay type: cell-based, human; design: dose or concentration left out as unconfirmed; settings: antibody, 18 to 24 hours, untreated 38.8±10.9
Protocol: (§1) Spontaneous migration assay—Glass coverslips were placed in 100×15 mm Petri dishes and UV sterilized overnight. Suspensions of cancer cells (2-4×10^5 cells/mol) were prepared from 80% to 90% confluent monolayers. Cells were plated on each coverslip and incubated for 2 to 5 days to reach 70% to 80% confluence. Two diagonal cell-free paths (“wounds”) were created by dragging a sterile yellow pipette tip across the surface. Monolayers were rinsed several times to remove floating cells and 4 mol of fresh medium were added back in the absence or presence of antibody IgG or Fab′ (10 μg/mol) and incubated at 37° C. After 18 to 24 hours, the medium was removed and coverslips stained with 1 mol Wright-Giemsa for 1 minute. The stain was washed off with distilled water, air-dried, and mounted onto slides with Cytoseal 60. Repopulation of the wound space was evaluated by counting the number of cells that migrated into the wound area in 10 representative fields. Regions of migration were photographed for documentation.

[2] = system: BXPC3 binding to fibronectin; assay: Adhesion to extracellular matrix proteins assay, BXPC3; assay type: cell-based, human
Protocol: Adhesion to extracellular matrix proteins assay—The assay was done using the CYTOMATRIX™ screening kit from CHEMICON® (Kit #ECM205, Temecula, Calif.). The kit contains 96-well plates with strips coated with fibronectin, vitronectin, laminin, collagen-I, or collagen-IV. Subconfluent cell cultures were used for these studies. Cells (1×10^6 cells/mol) were seeded onto coated substrate and incubated at 37° C. for 1 hour in a CO2 incubator in PBS containing Ca^2+/Mg^2+ (200 μL per well). Adherent cells were fixed and stained. The plate was washed to remove unadhered cells and stained with 100 μL per well of MTS (Cell Titer Aq 96, PROMEGA®, Madison, Wis.) for 5 minutes at room temperature. Excess stain was removed with three PBS washes. Solubilization buffer [100 μL of a 50:50 mixture of 0.1 mol/L NaH2PO4 (pH 4.5) and 50% ethanol] was added to each well. Relative attachment was determined using absorbance readings (A540 nm-A570 nm).

HT-29 cells = assay: Spontaneous migration (wound-healing) assay, HT-29; assay type: cell-based, human; design: dose or concentration left out as unconfirmed; settings: antibody, 18 to 24 hours, untreated 14.9±9.1, n=10
Protocol: as §1

MDA-231 cells = assay: Collagen-based invasion assay, MDA-231; assay type: cell-based, human; settings: MDA-231, expresses neither antigen
Protocol: (§2) Collagen-based invasion assay—The assay was done using CHEMICON® Kit (#ECM551, MILLIPORE®, Billerica, Mass.). Tumor cells at 80% confluence and were serum-starved for 18 to 24 hours before the assay was used. Cells were harvested with 5 mol of 2 mmol/L EDTA/PBS per 100-mm dish and incubated at 37° C. for 5 to 15 minutes. Cells were collected into 10 to 20 mol of quenching medium (serum-free DMEM containing 5% BSA) to inactivate trypsin/EDTA from the harvesting buffer. Cells were pelleted, resuspended in quenching medium (1×10^6 cells/mol), and appropriate antibody Fabs were added to individual cell aliquots. Cell invasion potential was determined as follows. Baseline invasion and invasion in the presence of a chemoattractant (10% FBS) were measured after a 72-hour incubation period at 37° C. in a 5% CO2 incubator. The bottom side of the collagen-coated polycarbonate membrane insert of the invasion chamber was placed in 400 μL of cell stain for 20 minutes at room temperature and washed. The dye was extracted and transferred into a 96-well microtiter plate for colorimetric measurements (A560 nm).

NCA, MA, CEA = assay: Specificity for NCA, MA and CEA; assay type: binding
Text: In 1983, Primus et al. described the first panel of MAbs (NP-1, NP-2, NP-3, and NP-4) that defined NCA-cross-reactive, MA-cross-reactive, and CEA-specific epitopes on the CEA molecule (Primus et al., Cancer Res 1983, 43:686-92). […] The “ion-sensitive” determinant on CEA first was delineated by Hansen et al. (Clin Res 1971, 19:143) using unadsorbed anti-CEA polyclonal serum, and subsequently by Haskell et al. (Cancer Res 1983, 43:3857-64) with MAb. NP-2 and NP-3 react with MA and CEA but not with NCA, whereas NP-4 reacts only with CEA (Primus et al., 1983). […] The present Example describes the production and characterization of a second generation of anti-CEA antibodies, including the MN-15 Class I anti-CEA MAb.
The reagents, formulation, standards, and assay protocol of the sandwich EIA used in these studies have been described elsewhere (Hansen et al., Clin Chem 1989, 35:146-51). All assays were performed with microwells coated with NP-1, except in one experiment, in which microwells were coated with MN-15. […] After the second incubation, the amount of probe bound to CEA was determined by washing out the unbound probe, adding substrate (o-phenylenediamine/hydrogen peroxide), adding acid to stop the reaction, and quantitating the color product by reading the adsorbance at 490 nm. […]

LS174T cells [3] = assay: Collagen-based invasion assay, LS174T; assay type: cell-based, human; settings: 10% FBS chemoattractant, 72-hour incubation
Protocol: as §2

[4] = system: HT-29 cells adhesion to HUVEC; assay: Endothelial cell adhesion assay, HT-29; assay type: cell-based, human
Protocol: Endothelial cell adhesion assay—Human umbilical vein endothelial cells (HUVEC; Cambrex, San Diego, Calif.) were grown in collagen-coated dishes in EGM Media in a humidified atmosphere with 5% CO2 at 37° C. At passages 2 to 5, cells were plated at a density of 4×10^4 cells per well in 96-well plates 24 hours before the assay. Interleukin-1β (IL-1β, 1 ng/mol) was added 4 hours before the assay. At the start of the study, the medium with the IL-1β was removed and fresh DMEM with 1% bovine serum albumin (BSA) added and incubated for 30 minutes. Fresh medium without antibodies or with 10 μg/mol of MN-15 Fab′, MN-3 Fab′, or Ag8 Fab′ was added. Tumor cells (1×10^6 cells/mol) prelabeled overnight with ^3H-thymidine (100 μL per well using 1.0 μCi/mL) were added to HUVEC cultures and incubated for 30 minutes at 37° C. with rotation in medium with 20% FBS. Samples were washed thrice with PBS to remove unattached cells. Attached cells were solubilized with 0.1 N NaOH and radioactivity was measured in a β scintillation counter. The cpm attached/total cpm added (attaching potential) was determined.

ZR75-30 cells = assay: Collagen-based invasion assay, ZR75-30; assay type: cell-based, human; settings: 10% FBS chemoattractant, 72-hour incubation
Protocol: as §2

Row | Molecule | migrating cells per field (LS174T cells [1]) | effect on binding to fibronectin [2] | number of migrating cells per field (HT-29 cells) | effect on invasion (MDA-231 cells) | reactivity with NCA, MA and CEA (NCA, MA, CEA) | reduction in cell invasion (LS174T cells [3]) | decrease in adhesion [4] | reduction in cell invasion (ZR75-30 cells)
1 | B1 | 20.3±0.1 cells | not affecting the binding | 5.5±1.8 cells | not reduced | reacted with normal cross-reactive antigen (NCA), MA, and CEA |  |  | 
2 | B2 | 21.6±1.2 cells |  | 5.4±0.8 cells | not reduced |  | 30% | 48% | 49%

Reference: patent US9371393B2, “Class I anti-CEA antibodies and uses thereof” (Immunomedics, Inc., priority 2009, dated 2016)
